Starred links: 1 amine or outer side, 2 acyl side, 3 side chain; linkers in the order of their positions; H or OH if unused. Positions of bridges follow the written chain, without caps; N, C: chain ends. TATA = O=C(CC[*:1])N1CN(C(=O)CC[*:2])CN(C(=O)CC[*:3])C1
Key:
Experiment in all cases: enzyme inhibition
[1] = molecular target: uPA (human, UniProt P00749 21-431)
[2] = molecular target: T1, plasmin (human, UniProt P00747 97-810)
T1 chain: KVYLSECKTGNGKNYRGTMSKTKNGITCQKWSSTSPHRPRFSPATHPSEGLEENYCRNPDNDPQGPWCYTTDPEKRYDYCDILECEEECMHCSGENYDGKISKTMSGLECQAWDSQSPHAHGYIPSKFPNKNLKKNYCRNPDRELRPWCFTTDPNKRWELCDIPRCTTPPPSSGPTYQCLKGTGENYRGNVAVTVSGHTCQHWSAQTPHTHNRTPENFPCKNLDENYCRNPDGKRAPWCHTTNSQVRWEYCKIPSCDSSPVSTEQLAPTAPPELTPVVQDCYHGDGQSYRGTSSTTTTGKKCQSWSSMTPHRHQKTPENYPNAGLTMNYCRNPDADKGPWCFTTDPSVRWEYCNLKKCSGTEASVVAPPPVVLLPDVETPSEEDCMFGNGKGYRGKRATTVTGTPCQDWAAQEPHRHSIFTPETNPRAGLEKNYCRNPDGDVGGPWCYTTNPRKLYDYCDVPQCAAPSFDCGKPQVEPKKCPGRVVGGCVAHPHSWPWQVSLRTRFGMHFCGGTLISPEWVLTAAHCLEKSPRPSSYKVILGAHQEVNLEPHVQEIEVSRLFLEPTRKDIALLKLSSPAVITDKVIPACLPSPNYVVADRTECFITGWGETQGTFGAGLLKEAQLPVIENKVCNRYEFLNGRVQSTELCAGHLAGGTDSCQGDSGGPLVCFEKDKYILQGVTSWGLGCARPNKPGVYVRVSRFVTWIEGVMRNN

[3] = molecular target: plasma kallikrein (human, UniProt P03952 20-638)
[4] = molecular target: human tissue-plasminogen activator (human, UniProt P00750 36-562)
[5] = molecular target: T2, factor Xa (human, UniProt P00742 41-179; P00742 235-488)
T2 chain 1: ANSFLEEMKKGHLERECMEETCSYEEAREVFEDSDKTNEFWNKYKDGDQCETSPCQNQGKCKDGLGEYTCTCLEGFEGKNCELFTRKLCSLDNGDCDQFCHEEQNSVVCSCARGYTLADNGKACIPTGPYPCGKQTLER
T2 chain 2: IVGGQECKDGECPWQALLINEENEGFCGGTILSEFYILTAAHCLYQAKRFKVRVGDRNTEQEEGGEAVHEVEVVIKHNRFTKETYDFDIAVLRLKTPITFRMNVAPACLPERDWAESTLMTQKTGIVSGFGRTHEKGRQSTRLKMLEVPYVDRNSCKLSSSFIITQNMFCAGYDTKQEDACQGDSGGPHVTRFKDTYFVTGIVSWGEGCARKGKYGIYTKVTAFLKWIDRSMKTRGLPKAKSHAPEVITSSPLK

[6] = molecular target: factor XIa (human, UniProt P03951 19-625)
[7] = molecular target: thrombin (human, UniProt P00734 328-622)
[8] = molecular target: T3, factor VIIa (human, UniProt P08709 61-466)
T3 chain: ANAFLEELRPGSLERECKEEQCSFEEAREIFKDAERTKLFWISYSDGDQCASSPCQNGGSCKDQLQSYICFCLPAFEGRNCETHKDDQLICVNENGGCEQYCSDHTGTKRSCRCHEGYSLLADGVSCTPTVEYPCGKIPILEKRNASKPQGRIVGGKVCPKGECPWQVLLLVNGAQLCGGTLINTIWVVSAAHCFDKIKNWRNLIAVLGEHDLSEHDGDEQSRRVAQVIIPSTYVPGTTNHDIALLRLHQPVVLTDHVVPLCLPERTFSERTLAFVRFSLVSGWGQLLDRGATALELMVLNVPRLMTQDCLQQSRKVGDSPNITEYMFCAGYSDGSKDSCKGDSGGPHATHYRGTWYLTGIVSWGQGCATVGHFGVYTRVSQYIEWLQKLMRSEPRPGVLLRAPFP

Measured: Ki

Chain of plasma kallikrein (P03952 20-638): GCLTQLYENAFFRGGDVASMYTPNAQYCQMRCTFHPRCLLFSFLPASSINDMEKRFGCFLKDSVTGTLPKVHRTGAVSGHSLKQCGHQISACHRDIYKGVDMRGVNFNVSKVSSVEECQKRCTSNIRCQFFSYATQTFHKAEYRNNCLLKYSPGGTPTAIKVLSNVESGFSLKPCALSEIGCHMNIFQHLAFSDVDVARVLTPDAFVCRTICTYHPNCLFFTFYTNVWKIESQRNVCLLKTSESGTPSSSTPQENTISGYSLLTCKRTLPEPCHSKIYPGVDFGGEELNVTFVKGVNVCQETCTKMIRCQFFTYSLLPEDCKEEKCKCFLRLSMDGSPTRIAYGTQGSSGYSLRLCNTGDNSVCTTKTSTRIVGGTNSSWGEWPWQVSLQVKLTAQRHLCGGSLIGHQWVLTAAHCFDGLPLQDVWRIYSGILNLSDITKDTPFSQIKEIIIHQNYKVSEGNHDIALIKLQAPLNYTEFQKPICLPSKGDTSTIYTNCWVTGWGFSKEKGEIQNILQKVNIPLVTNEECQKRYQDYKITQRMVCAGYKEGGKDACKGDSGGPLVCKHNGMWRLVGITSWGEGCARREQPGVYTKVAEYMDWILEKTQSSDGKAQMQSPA
Chain of human tissue-plasminogen activator (P00750 36-562): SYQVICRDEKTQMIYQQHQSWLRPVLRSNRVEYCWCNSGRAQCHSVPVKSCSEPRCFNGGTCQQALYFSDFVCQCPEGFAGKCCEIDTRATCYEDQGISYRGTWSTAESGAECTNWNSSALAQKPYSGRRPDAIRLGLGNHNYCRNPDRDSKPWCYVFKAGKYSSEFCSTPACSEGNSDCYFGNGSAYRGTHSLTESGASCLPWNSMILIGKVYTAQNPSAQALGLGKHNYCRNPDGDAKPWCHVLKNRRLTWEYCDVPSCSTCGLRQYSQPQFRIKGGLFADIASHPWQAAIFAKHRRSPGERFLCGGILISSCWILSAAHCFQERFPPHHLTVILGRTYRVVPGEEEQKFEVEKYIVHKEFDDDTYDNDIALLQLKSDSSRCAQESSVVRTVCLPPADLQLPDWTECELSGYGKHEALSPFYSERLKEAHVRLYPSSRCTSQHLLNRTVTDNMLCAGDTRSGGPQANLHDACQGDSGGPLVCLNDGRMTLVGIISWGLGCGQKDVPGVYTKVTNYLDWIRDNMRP

B1: FXII618 (peptide)
peptide: H-RCFRLPCRQLRCR-NH2
modifications: linker 2-7-12 via TATA
> 50 µM: [1] | [2] | [3] | [4] | [5] | [6] | [7] | [8]

Source: patent publication US20180118786A1 (published 2018)
